{
  "source": "patent US20250302939A1",
  "about": "“VACCINE FOR HUMAN T-LY[…]-1” (The United States of America, as represented by the …, priority 2022, published 2025)",
  "molecules": {"B1": {"name": "p16: HTLV-1C protein encoded by the rex-orf-I mRNA (SEQ ID NO: 10) (protein, listed as Homo sapiens)", "chain": "MPKTRRGPRRSQRKRPPTPWQPPPFSLQGLCLALQLSSITINPQLRHSFSSSTTLPCLLLPSSLFCLSPLALAALLFLQFSPGAVGGLLLRPPPAPSLLLSLPFQKLSNLFLLLFFPLSFSLSLLLGPSPPITMRFPARWRFLFRRAPSQPA"}},
  "system": "MHC class-I",
  "assay": "Surface expression of MHC class I in transduced Jurkat T-cells (FACS)",
  "assay_type": "cell-based, human",
  "conditions": "HIV nef as positive control",
  "method": "FIGS. 5A-5E. (FIG. 5A) Amino acids alignment between Rex-orfI protein (p16) (SEQ ID NO: 10) and p12/p8 (SEQ ID NO: 11). Amino acids changes are underlined. Jurkat T-cells (FIG. 5B) or THP-1 cells (FIG. 5C) were transduced with lentiviral GFP vector expressing p12/p8 HA tag, or p16-HA tag or only GFP, as a control. Forty-eight hours post-transfection proteins were extracted and immunoblot with anti HA antibody was performed. Jurkat T-cells were transduced with GFP-lentiviruses expressing p16, Nef, or only GFP as a control. Cells were stained with HLA-ABC antibody (PE/Cy5 anti-human HLA-A,B,C clone w6/32 BioLegend) and analyzed by FACS. (FIG. 5D) Protein expression was verified by Immunoblot using an anti HA antibody and B-actin as control (cell signaling and appropriate secondary antibodies purchased from Santa Cruz Biotechnology) (FIG. 5E).\nThe cDNA synthesized from the rex-orf-I mRNA (FIG. 5A) encodes upon transfection a single protein band (p16) in Jurkat T-cells (FIG. 5B and FIG. 5C). In the human myeloid cell line THP-1 further processing of p16 results in two lower protein bands (FIGS. 5D and 5E).",
  "data": [
    {"molecule": "B1", "values": [
      {"measurement": "effect on surface expression of MHC class I", "result": "does not affect surface expression of MHC-class I"}
    ]}
  ]
}
